Experimental findings from patent publication US6887467B1, “Double mutants of dihydrofolate reductase and methods of using same” (Sloan-Kettering Institute for Cancer Research, priority 1996, dated 2005) are described below.

In data set [1] the test system is human DHFR (wild type and variants). Kind of data set: Inhibition constants (Ki) of antifolates for DHFR variants from steady state reaction rates. The data set is classed as biochemical. The settings on record: for Ki Kcat/km relative: relative to wt = 1, MTX. From the text:
The first parameter, Ki, is the “inhibition constant” and reflects the level of inhibition by a given compound. Ki, is obtained from steady state reaction rates observed for mixtures of enzyme, cofactor. 7,8-dihydrofolate (the normal substrate) and variable levels of antifolate. The higher the value of Ki, the higher the concentration of antifolate required to inhibit the activity of the enzyme on the normal substrate.
(§1) The parameters Km and kcat can be combined to provide a measure of overall catalytic efficiency which is given by kcat/Km. High levels of catalytic efficiency are preferred.

For data set [2] the test system is unchanged. The experiment in a line: Kinetic parameters (Km, kcat) of purified DHFR variants with 7,8-dihydrofolate. The data set is classed as biochemical. The procedure: Km or the “Michaelis constant” reflects the ability of an enzyme to convert a given substrate to product. In this case, the substrate is the normal substrate, 7,8-dihydrofolate. Km is determined using a double reciprocal plot of the initial velocity of the reaction as a function of the concentration of the substrate. Higher values of Km reflect a decreased affinity for the normal substrate.
kcat reflects the catalytic turnover of the enzyme. kcat values are obtained by active site titration experiments using MTX or from activity and total protein measurements of purified enzyme species.
as §1
Enzyme expressed by the transformed E. coli was purified using an MTX-affinity column, followed by DEAE-Sephacel column chromatography.

Where two headings read alike, the source gives them in different places.

As for `N[C@@H](Cc1ccc(O)cc1)C(=O)O` [22 tyrosine, reference compound], the “Ki Kcat/km relative” value in data set [1] was determined as 104.

B1: wild type: wild-type human dihydrofolate reductase, leucine at amino acid 22 and phenylalanine at amino acid 31 (protein, UniProt P00374 1-187, looked up)
Dihydrofolate reductase: MVGSLNCIVAVSQNMGIGKNGDLPWPPLRNEFRYFQRMTTTSSVEGKQNLVIMGKKTWFSIPEKNRPLKGRINLVLSRELKEPPQGAHFLSRSLDDALKLTEQPELANKVDMVWIVGGSSVYKEAMNHPGHLKLFVTRIMQDFESDTFFPEIDLEKYKLLPEYPGVLSDVQEEKGIKYKFEVYEKND
Usually kcat stands for the number of substrate molecules converted per active site and unit of time at saturation. The term Km denotes the concentration of substrate that gives half-maximal velocity. As usually defined, the Ki is the equilibrium dissociation constant of an inhibitor or competing ligand from its target. Regarding B1, the kcat in data set [2] is 12.7 s⁻¹. Further, the Km in data set [2] (substrate 7,8-dihydrofolate, read-out: Km (H2folate)) stood at 0.08 µM. The Ki in data set [1] (inhibitor aminopterin, read-out: Ki APT) was 1.8 pM; in data set [1] (inhibitor methotrexate, read-out: Ki (MTX)), 1.2 pM; in data set [1] (inhibitor piritrexin, read-out: Ki PTX) it was 132 pM; in data set [1] (inhibitor trimetrexate, read-out: Ki TMTX), 13 pM. Also, the “Ki Kcat/km” value in data set [1] (product of Ki (MTX) and catalytic efficiency) turned out to be 0.191 s⁻¹. For the same molecule, the “Ki Kcat/km relative” value in data set [1] stood at 1.
